This series addresses T1, recombinant human MAT II β subunit protein with N-terminal poly-His tag, expressed in E. coli from pQE-30 (Clone 5).
T1 chain: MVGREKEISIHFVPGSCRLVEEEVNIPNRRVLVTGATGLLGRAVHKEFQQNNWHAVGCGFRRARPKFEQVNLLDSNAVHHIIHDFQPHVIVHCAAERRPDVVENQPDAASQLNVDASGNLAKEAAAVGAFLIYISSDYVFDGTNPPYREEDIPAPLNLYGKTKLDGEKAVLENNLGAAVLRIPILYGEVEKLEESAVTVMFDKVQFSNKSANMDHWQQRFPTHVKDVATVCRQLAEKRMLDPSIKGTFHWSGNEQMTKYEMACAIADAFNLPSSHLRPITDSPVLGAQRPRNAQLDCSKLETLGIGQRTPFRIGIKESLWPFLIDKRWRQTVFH

B1: endogenous E. coli MAT α subunit (protein)
chain: AKHLFTSESVSEGHPDKIADQISDAVLDAILEQDPKARVACETYVKTGMVLVGGEITTSAWVDIEEITRNTVREIGYVHSDMGFDANSCAVLSAIGKQSPDINQGVDRADPLEQGAGDQGLMFGYATNETDVLMPAPITYAHRLVQRQAEVRKNGTLPWLRPDAKSQVTFQYDDGKIVGIDAVVLSTQHSEEIDQKSLQEAVMEEIIKPILPAEWLTSATKFFINPTGRFVIGGPMGDCGLTGRKIIVDTYGGMARHGGGAFSGKDPSKVDRSAAYAARYVAKNIVAAGLADRCEIQVSYAIGVAEPTSIMVETFGTEKVPSEQLTLLVREFFDLRPYGLIQMLDLLHPIYKETAAYGHFGREHFPWEKTDKAQLLRDAAGLK
In the case of B1, the “Km of MAT for L-methionine” value is “This association changed the kinetic properties of the enzyme and lowered the Km of MAT for L-methionine”.

The values are drawn from patent US20040259198.
